Laboratory results from US20230265151A1, “GIP/GLP1 CO-AGONIST COMPOUNDS” (priority 2020, published 2023).
Changes are numbered by the printed parent chain. *1 amine or outer side, *2 acyl side, *3 side chain or, on linkers, in order; H or OH if unused. Where no end group is shown, it is not given here. Side-chain parts run from the residue outwards. [ ]: non-standard residue; d: D form. The star is where a group is joined. αMePhe(2-F) = C[C@](N)(Cc1ccccc1F)C(=O)O; γGlu = O=C(O)[C@H](CCC(=O)[*:2])N[*:1]; C14 diacid = O=C(O)CCCCCCCCCCCCC(=O)*; εLys = N[C@@H](CCCCN[*:1])C(=O)[*:2]; αMeY = C[C@](N)(Cc1ccc(O)cc1)C(=O)O; αMeL = CC(C)C[C@](C)(N)C(=O)O; Nle = CCCC[C@H](N)C(=O)O; Orn = NCCC[C@H](N)C(=O)O; AEEA = NCCOCCOCC(=O)O; Aib = CC(C)(N)C(=O)O

T1: human glucose-dependent insulinotropic polypeptide (GIP) receptor (human, UniProt P48546 22-466)
T1 sequence (looked up): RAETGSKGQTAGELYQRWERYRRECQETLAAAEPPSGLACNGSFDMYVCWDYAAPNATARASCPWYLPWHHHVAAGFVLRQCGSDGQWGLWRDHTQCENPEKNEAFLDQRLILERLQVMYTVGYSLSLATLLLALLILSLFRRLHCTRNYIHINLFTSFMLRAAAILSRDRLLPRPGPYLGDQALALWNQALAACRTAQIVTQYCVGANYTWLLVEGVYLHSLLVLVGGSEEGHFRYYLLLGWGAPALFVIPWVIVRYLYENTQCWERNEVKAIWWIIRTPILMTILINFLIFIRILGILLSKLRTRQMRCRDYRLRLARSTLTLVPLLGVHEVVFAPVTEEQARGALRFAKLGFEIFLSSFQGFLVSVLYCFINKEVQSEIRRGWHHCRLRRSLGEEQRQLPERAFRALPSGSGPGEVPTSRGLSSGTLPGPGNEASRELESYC

B1: Example 269 (peptide)
peptide: Y[Aib]EGT[αMePhe(2-F)]TSD[Nle]SI[αMeL]LD[Orn]IAQ[Aib]EFIK([AEEA-AEEA-γGlu-C14 diacid])[αMeY]LIK([AEEA-AEEA-γGlu-C14 diacid])GGPSSGAPPPS-NH2
modifications: N-terminus assumed
SMILES: CCCC[C@H](NC(=O)[C@H](CC(=O)O)NC(=O)[C@H](CO)NC(=O)[C@@H](NC(=O)[C@](C)(Cc1ccccc1F)NC(=O)[C@@H](NC(=O)CNC(=O)[C@H](CCC(=O)O)NC(=O)C(C)(C)NC(=O)[C@@H](N)Cc1ccc(O)cc1)[C@@H](C)O)[C@@H](C)O)C(=O)N[C@@H](CO)C(=O)N[C@H](C(=O)N[C@@](C)(CC(C)C)C(=O)N[C@@H](CC(C)C)C(=O)N[C@@H](CC(=O)O)C(=O)N[C@@H](CCCN)C(=O)N[C@H](C(=O)N[C@@H](C)C(=O)N[C@@H](CCC(N)=O)C(=O)NC(C)(C)C(=O)N[C@@H](CCC(=O)O)C(=O)N[C@@H](Cc1ccccc1)C(=O)N[C@H](C(=O)N[C@@H](CCCCNC(=O)COCCOCCNC(=O)COCCOCCNC(=O)CC[C@H](NC(=O)CCCCCCCCCCCCC(=O)O)C(=O)O)C(=O)N[C@@](C)(Cc1ccc(O)cc1)C(=O)N[C@@H](CC(C)C)C(=O)N[C@H](C(=O)N[C@@H](CCCCNC(=O)COCCOCCNC(=O)COCCOCCNC(=O)CC[C@H](NC(=O)CCCCCCCCCCCCC(=O)O)C(=O)O)C(=O)NCC(=O)NCC(=O)N1CCC[C@H]1C(=O)N[C@@H](CO)C(=O)N[C@@H](CO)C(=O)NCC(=O)N[C@@H](C)C(=O)N1CCC[C@H]1C(=O)N1CCC[C@H]1C(=O)N1CCC[C@H]1C(=O)N[C@@H](CO)C(N)=O)[C@@H](C)CC)[C@@H](C)CC)[C@@H](C)CC)[C@@H](C)CC
B2: Example 167 (peptide)
peptide: Y[Aib]EGT[αMePhe(2-F)]TSDV[Aib]I[αMeL]LD[Orn]K([εLys-γGlu-C14 diacid])AQ[Aib]EFIK([εLys-γGlu-C14 diacid])[αMeY]LIEGGPSSGAPPPS-NH2
B3: Example 267 (peptide)
peptide: YXEGTXTSDXSIXLDXKAQXEFIXXLIEGGPSSGAPPPSK
modifications: Aib2, αMeF(2F)6, OMeY10, αMeL13, Orn16, K17(Z), Aib20, D-Glu24, αMeY25, K40(Z), C-terminal NH2; Z = AEEA2-CO-(CH2)12-CO2H
B4: Example 288 (peptide)
peptide: B3 peptide with K17I, E21K
modifications: Aib2, αMeF(2F)6, 4Pal10, αMeL13, Orn16, Aib20, K21(Z), D-Glu24, αMeY25, K40(Z), C-terminal NH2; Z = AEEA2-(γ-Glu)-(11-(4-carboxyphenoxy)undecanoyl)
B5: Example 276 (peptide)
peptide: B3 peptide with K17I, E21K
modifications: Aib2, αMeF(2F)6, 4Pal10, αMeL13, Orn16, Aib20, K21(Z), D-Glu24, αMeY25, K40(Z), C-terminal NH2; Z = AEEA2-(γ-Glu)-(10-(4-carboxyphenoxy)decanoyl)
B6: Example 273 (peptide)
peptide: B3 peptide
modifications: Aib2, αMeF(2F)6, 4Pal10, αMeL13, Orn16, K17(Z), Aib20, D-Glu24, αMeY25, K40(Z), C-terminal NH2; Z = AEEA2-(γ-Glu)-(10-(4-carboxyphenoxy)decanoyl)
B7: Example 285 (peptide)
peptide: B3 peptide
modifications: Aib2, αMeF(2F)6, 4Pal10, αMeL13, Orn16, K17(Z), Aib20, D-Glu24, αMeY25, K40(Z), C-terminal NH2; Z = AEEA2-(γ-Glu)-(11-(4-carboxyphenoxy)undecanoyl)
B8: Example 268 (peptide)
peptide: B3 peptide with K17I, E21K
modifications: Aib2, αMeF(2F)6, OMeY10, αMeL13, Orn16, Aib20, K21(Z), D-Glu24, αMeY25, K40(Z), C-terminal NH2; Z = AEEA2-CO-(CH2)12-CO2H
B9: Example 157 (peptide)
peptide: YXEGTXTSDXSIXLDXKAQXXFIXXLIEGGKSSGAPPPS
modifications: Aib2, αMeF(2F)6, 4Pal10, αMeL13, Orn16, K17(Z), Aib20, 4Pal21, D-Glu24, αMeY25, K31(Z), C-terminal NH2; Z = AEEA2-(γ-Glu)-CO-(CH2)12-CO2H
B10: Example 166 (peptide)
peptide: Y[Aib]EGT[αMePhe(2-F)]TSDV[Aib]I[αMeL]LD[Orn]K([AEEA-AEEA-εLys-C14 diacid])AQ[Aib]EFIK([AEEA-AEEA-εLys-C14 diacid])[αMeY]LIEGGPSSGAPPPS-NH2
B11: Example 270 (peptide)
peptide: YXEGTXTSDXSIXLDXIAQXEFIKXLIKGGPSSGAPPPS
modifications: Aib2, αMeF(2F)6, hTyr10, αMeL13, Orn16, Aib20, K24(Z), αMeY25, K28(Z), C-terminal NH2; Z = AEEA2-(γ-Glu)-CO-(CH2)12-CO2H
B12: Example 277 (peptide)
peptide: B9 peptide with X21K, K31P
modifications: Aib2, αMeF(2F)6, OMeY10, αMeL13, Orn16, K17(Z), Aib20, K21(Z), D-Glu24, αMeY25, C-terminal NH2; Z = AEEA2-(γ-Glu)-(10-(4-carboxyphenoxy)decanoyl)
B13: Example 281 (peptide)
peptide: B9 peptide with X21K, K31P
modifications: Aib2, αMeF(2F)6, 2Nal10, αMeL13, Orn16, K17(Z), Aib20, K21(Z), D-Glu24, αMeY25, C-terminal NH2; Z = AEEA2-(γ-Glu)-(10-(4-carboxyphenoxy)decanoyl)
B14: Example 159 (peptide)
peptide: B9 peptide with X21E, X24E
modifications: Aib2, αMeF(2F)6, 4Pal10, αMeL13, Orn16, K17(Z), Aib20, αMeF25, K31(Z), C-terminal NH2; Z = AEEA2-(γ-Glu)-CO-(CH2)12-CO2H
B15: Example 274 (peptide)
peptide: B11 peptide
modifications: Aib2, αMeF(2F)6, 4Pal10, αMeL13, Orn16, Aib20, K24(Z), αMeY25, K28(Z), C-terminal NH2; Z = AEEA2-(γ-Glu)-(10-(4-carboxyphenoxy)decanoyl)
B16: Example 278 (peptide)
peptide: B11 peptide with I17K, K24X
modifications: Aib2, αMeF(2F)6, OMeY10, αMeL13, Orn16, K17(Z), Aib20, D-Glu24, αMeY25, K28(Z), C-terminal NH2; Z = AEEA2-(γ-Glu)-(10-(4-carboxyphenoxy)decanoyl)

Target: human glucagon receptor (human, UniProt P47871 26-477)
Test: cell-based or functional assay

B1 and B2 cannot be ordered by “cAMP EC50” value: greater than 9950 nM for the first, greater than 9950 nM for the second.

B3 and B4 cannot be ordered by “cAMP EC50” value: greater than 9950 nM for the first, greater than 9950 nM for the second.

B5 and B6 cannot be ordered by “cAMP EC50” value: greater than 9950 nM for the first, greater than 9950 nM for the second.

B7 and B8 cannot be ordered by “cAMP EC50” value: greater than 9950 nM for the first, greater than 9950 nM for the second.

B9 and B10 cannot be ordered by “cAMP EC50” value: greater than 9950 nM for the first, greater than 9950 nM for the second.

B11 and B12 cannot be ordered by “cAMP EC50” value: greater than 9950 nM for the first, greater than 9950 nM for the second.

B13 and B14 cannot be ordered by “cAMP EC50” value: greater than 9950 nM for the first, greater than 9950 nM for the second.

B15 and B16 cannot be ordered by “cAMP EC50” value: greater than 9950 nM for the first, greater than 9950 nM for the second.

Target: T1, human glucose-dependent insulinotropic …
Test: cell-based or functional assay

Compared with B1, B2 is 1.6-fold higher in “cAMP EC50” value: 0.0335 nM for the first, 0.0534 nM for the second.

B3 and B4 are within 1.5-fold of each other in “cAMP EC50” value: 0.0162 nM for the first, 0.0219 nM for the second.

B5 and B6 are within 1.5-fold of each other in “cAMP EC50” value: 0.0134 nM for the first, 0.0166 nM for the second.

First: B7
Second: B8
The “cAMP EC50” value of the first is 2.3-fold lower: 0.0115 nM for the first, 0.0265 nM for the second.

First: B9
Second: B10
The “cAMP EC50” value of the first is 2.7-fold lower: 0.0286 nM for the first, 0.0774 nM for the second.

First: B11
Second: B12
The “cAMP EC50” value of the first is 3.2-fold higher: 0.0567 nM for the first, 0.0176 nM for the second.

B13 and B14 are within 1.5-fold of each other in “cAMP EC50” value: 0.0187 nM for the first, 0.0198 nM for the second.

B15 and B16 are within 1.5-fold of each other in “cAMP EC50” value: 0.0226 nM for the first, 0.0173 nM for the second.

Going from B2 to B9, the “cAMP Emax” value falls from 99.5% to 98.8%.

First: B10
Second: B14
The “cAMP Emax” value of the first is higher: 97% for the first, 95.3% for the second.

Target: human glucagon-like peptide-1 (GLP-1) receptor (human, UniProt P43220 24-463)
Test: cell-based or functional assay

First: B1
Second: B2
The “cAMP EC50” value of the first is 7.9-fold higher: 1.72 nM for the first, 0.217 nM for the second.

B3 and B4 are within 1.5-fold of each other in “cAMP EC50” value: 0.271 nM for the first, 0.354 nM for the second.

Compared with B5, B6 is 4.2-fold higher in “cAMP EC50” value: 0.49 nM for the first, 2.08 nM for the second.

Going from B7 to B8, the “cAMP EC50” value falls from 1.21 nM to 0.613 nM (2-fold).

Compared with B9, B10 is 4.9-fold lower in “cAMP EC50” value: 0.94 nM for the first, 0.192 nM for the second.

Going from B11 to B12, the “cAMP EC50” value falls from 0.551 nM to 0.225 nM (2.4-fold).

First: B13
Second: B14
The “cAMP EC50” value of the first is 2.2-fold lower: 0.252 nM for the first, 0.558 nM for the second.

B15 and B16 are within 1.5-fold of each other in “cAMP EC50” value: 0.406 nM for the first, 0.29 nM for the second.

Compared with B2, B10 is lower in “cAMP Emax” value: 91.4% for the first, 90.3% for the second.

B14 was tested, and the “cAMP Emax” value was 89.4%.
